Data as given in PMC4376263 (International Journal of Nanomedicine, 2015).
“And” between values parts separate entries of the source, which are not always exact repeats. Equal values may be shown once. Read-outs that look alike come from different tables or passages of the source.

Experiments:
CT26 tumor xenograft = assay type: in vivo, BALB/c mice; conditions: for Body weight Final / Body weight Initial / IRT (inhibition ratio of the tumor) / Tumor weight Mean ± SD: n=8; for Histological section examination of tumor (H&E): day 14
[1] = tested on: murine colon adenocarcinoma cell line CT26; test: In vitro cytotoxicity; assay type: cell-based; conditions: for fold more potent than CPT-11: ratio of IC50 values
Drug-loading measurement = assay type: physicochemical; conditions: weight of SN38 / weight of prodrug, HPLC with UV detector, triplicate
[2] = Particle size and zeta potential of micelles; assay type: physicochemical; conditions: 25°C, n=3
[3] = Critical micelle concentration; assay type: physicochemical; conditions: aqueous medium, coumarin-6 probe
[4] = Pharmacokinetic study after intravenous administration to SD rats; conditions: n=6; for Cmax of free SN38: free SN38 in plasma, intravenous 10 mg/kg (equivalent to SN38); for AUC0–24 of prodrug / Cmax of prodrug: prodrug form in plasma (equivalent to SN38); for AUC0–24 of prodrug / Cmax of prodrug / CL of prodrug / MRT0–24 of prodrug / T1/2 of prodrug: intravenous 10 mg/kg; for CL of prodrug / MRT0–24 of prodrug / T1/2 of prodrug: prodrug form in plasma
[5] = In vitro drug release by dialysis; assay type: physicochemical; conditions: by 48 hours, 37°C, pH 6.5 PBS, pH 7.4 PBS, 25% liver homogenate, 50% plasma; P<0.05
[6] = 2.5 mg/kg (equivalent to SN38) i.v. every 2 days for 2 weeks
[7] = 1.25 mg/kg (equivalent to SN38) i.v. every 2 days for 2 weeks
[8] = CT26 cells, 48 hours incubation, MTT, equivalent to SN38, mean ± SD, n=3

| Compound | Body weight Final (CT26 tumor xenograft; [6]) | Body weight Initial (CT26 tumor xenograft; [6]) | IRT (inhibition ratio of the tumor) (CT26 tumor xenograft; [6]) | Tumor weight Mean ± SD (CT26 tumor xenograft; [6]) | Histological section examination of tumor (H&E) (CT26 tumor xenograft; 2.5 mg/kg) | IC50 ([1]; Mus musculus, CT26, 48 h) | drug loading (Drug-loading measurement) | mean particle size [2] | mean zeta potential [2] | CMC (critical micelle concentration) [3] | Body weight Final (CT26 tumor xenograft; [7]) | Body weight Initial (CT26 tumor xenograft; [7]) | IRT (inhibition ratio of the tumor) (CT26 tumor xenograft; [7]) | Tumor weight Mean ± SD (CT26 tumor xenograft; [7]) | Histological section examination of tumor (H&E) (CT26 tumor xenograft; 1.25 mg/kg) | Cmax of free SN38 [4] | AUC0–24 of prodrug [4] | Cmax of prodrug [4] | CL of prodrug [4] | MRT0–24 of prodrug [4] | further results |
| --- | --- | --- | --- | --- | --- | --- | --- | --- | --- | --- | --- | --- | --- | --- | --- | --- | --- | --- | --- | --- | --- |
| CCc1c2c(nc3ccc(OC(=O)N4CCC(N5CCCCC5)CC4)cc13)-c1cc3c(c(=O)n1C2)COC(=O)[C@]3(O)CC [CPT-11, irinotecan, reference compound] | 23.6 ± 1.67 g | 19.8 ± 1.73 g | 23.5% | 2.51 ± 0.36 g | Partial tumor tissue necrosis | 46.7 µM |  |  |  |  |  |  |  |  |  |  |  |  |  |  |  |
| chitosan-(C10-OH)SN38 [CS-(10s)SN38] | 22.7 ± 1.96 g | 20.4 ± 2.11 g | 47.8 ^a, ^b % | 1.71 ± 0.21 g | extensive tissue necrosis |  | 16.5%±0.7% | 128.0±1.8 nm | 21.1±0.5 mV | 15 µg/mL | 24.6 ± 1.24 g | 20.0 ± 1.73 g | 27.7% | 2.37 ± 0.19 g | Partial tumor tissue necrosis | 3,057.78±637.61 μg/L | 89.84±8.01 ×10^3 μg⋅h/L | 46.89±6.56 ×10^3 μg/L | 1.83 ± 0.17 mL/min/kg | 4.90 ± 0.66 h | T1/2 of prodrug [4]: 5.40 ± 1.29 h; IC50 [1, 8]: 3.5 µM; fold more potent than CPT-11 ([1]; CT26 cells): 13.3 fold |
| chitosan-(C20-OH)SN38 [CS-(20s)SN38] | 21.5 ± 2.52 g | 19.6 ± 1.57 g | 64.7% and 64.7 ^a, ^c, ^d % | 1.15 ± 0.09 g | extensive tissue necrosis |  | 17.4%±0.8% | 122.4±1.1 nm | 22.3±0.4 mV | 12 µg/mL | 24.1 ± 1.31 g | 20.6 ± 1.31 g | 31% | 2.24 ± 0.27 g | Partial tumor tissue necrosis | 2,489.43±153.63 μg/L | 133.07±11.10 ×10^3 μg⋅h/L | 48.43±4.27 ×10^3 μg/L | 1.2 ± 0.17 mL/min/kg | 4.94 ± 1.58 h | drug release compared with CS-(10s)SN38 [5]: slower drug release; T1/2 of prodrug [4]: 7.05 ± 2.04 h; IC50 [1, 8]: 1.8 µM; fold more potent than CPT-11 ([1]; CT26 cells): 25.9 fold |
| CCc1c2c(nc3ccc(O)cc13)-c1cc3c(c(=O)n1C2)COC(=O)[C@]3(O)CC [SN38, 7-Ethyl-10-hydroxycamptothecin, reference compound] |  |  |  |  |  | 0.0204 ± 0.0018 µM |  |  |  |  |  |  |  |  |  |  |  |  |  |  |  |
